Experimental data published in US7947873.

Experiments:
Experiment in all cases: cell_activity
[1] = system: AGMT8-C1 ZFP-TF (Artificial); details: control 1.00; napin promoter; effective activator in leaf, not in seed per p274
[2] = system: CGMT4-C1 ZFP-TF (Artificial); details: control 39.9; napin promoter, transgenic canola
[3] = system: AGMT5-C1 ZFP-TF (Artificial); details: control 1.00; napin promoter, transgenic Arabidopsis
[4] = system: AGMT10-C1 ZFP-TF (Artificial); details: control 1.00; napin promoter; effective activator in leaf
[5] = system: AGMT9-C1 ZFP-TF (Artificial); details: control 1.00; napin promoter, transgenic Arabidopsis
[6] = system: CGMT6-C1 ZFP-TF (Artificial); details: control 39.9; napin promoter, transgenic canola
[7] = system: CGMT12-C1 ZFP-TF (Artificial); details: control 39.9; napin promoter, transgenic canola
[8] = system: CGMT3-C1 ZFP-TF (Artificial); details: control 39.9; napin promoter, transgenic canola
[9] = system: AGMT7-C1 ZFP-TF (Artificial); details: control 1.00; napin promoter; 35S promoter 1.69; 5-fold GMT mRNA increase in leaf protoplasts (p271)
[10] = system: CGMT10-C1 ZFP-TF (Artificial); details: control 39.9; napin promoter, transgenic canola
[11] = system: CGMT9-C1 ZFP-TF (Artificial); details: control 39.9; napin promoter, transgenic canola
[12] = system: AGMT6-C1 ZFP-TF (Artificial); details: control 1.00; napin promoter, transgenic Arabidopsis

GAAGAGGGTG (double strand) [ZFP C / AGMT8 target]
activity (% alpha-tocopherol in T2 seed) [1]: 1.57

GAGGAAGAT (double strand) [CGMT4 target]
activity (% alpha-tocopherol in R1 seed) [2]: 51.9

GAGGAAGGGG (double strand) [ZFP A / AGMT5 target]
activity (% alpha-tocopherol in T2 seed) [3]: 4.45

GAGGAGGAGG (double strand) [ZFP E / AGMT10 target]
activity (% alpha-tocopherol in T2 seed) [4]: 2.86

GAGGAGGATG (double strand) [ZFP D / AGMT9 target]
activity (% alpha-tocopherol in T2 seed) [5]: 2.31

GAGGTTGGA (double strand) [CGMT6 target]
activity (% alpha-tocopherol in R1 seed) [6]: 59.6

GAGGTTGGC (double strand) [CGMT12 target]
activity (% alpha-tocopherol in R1 seed) [7]: 64.5

GATGCTGGT (double strand) [CGMT3 target]
activity (% alpha-tocopherol in R1 seed) [8]: 46.6

GGGGAAAGGG (double strand) [ZFP B / AGMT7 target]
activity (% alpha-tocopherol in T2 seed) [9]: 5.95

GTAGAGGAC (double strand) [CGMT10 target]
activity (% alpha-tocopherol in R1 seed) [10]: 54.2

TAGTTGGAA (double strand) [CGMT9 target]
activity (% alpha-tocopherol in R1 seed) [11]: 46.2

TGGGTAGTC (double strand) [AGMT6 target]
activity (% alpha-tocopherol in T2 seed) [12]: 1.74
